The Kd is the concentration at which binding is half-saturated. A high value points to a looser complex.

Data set [1] deals with T1, c-Met Fc fusion (UniProt P08581 P08581:25-932). Kind of data set: filter; c-Met aptamer at 3' end performed best; dot blot. The following applies: tags: Fc-His fusion; chain copies: 2.
In data set [2] the target is T1, c-Met Fc fusion. Kind of data set: filter; complete loss of binding, dot blot. The following applies: tags: Fc-His fusion; chain copies: 2.
Data set [3] addresses T1, c-Met Fc fusion. Kind of data set: filter; picomolar Kd, number only in figure; EMSA also shows binding. The following applies: tags: Fc-His fusion; chain copies: 2. For orientation: In EMSA bound probe runs differently from free probe, usually more slowly.
Data set [4] deals with T1, c-Met Fc fusion. Kind of data set: filter; picomolar Kd, number only in figure. The following applies: tags: Fc-His fusion; chain copies: 2.
Data set [5] addresses T2, CD16α (FcγRIIIa) V158 allotype, CD16α-6His (UniProt P08637 P08637:17-208). In words: filter; dot blot. The following applies: tags: 6His.
The target of a further data set is CD16β (FcγRIIIb) (UniProt O75015 O75015:17-200). In words: filter; dot blot. The following applies: tags: 10His.
Sequence of CD16β (FcγRIIIb) (O75015 17-200, one chain of several): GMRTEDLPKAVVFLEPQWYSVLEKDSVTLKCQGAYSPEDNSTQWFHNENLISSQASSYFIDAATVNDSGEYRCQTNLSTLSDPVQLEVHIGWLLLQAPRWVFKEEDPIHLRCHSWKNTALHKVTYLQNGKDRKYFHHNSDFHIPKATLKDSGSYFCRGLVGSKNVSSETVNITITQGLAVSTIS
Data set [6] concerns the target T2, CD16α (FcγRIIIa) V158 allotype, …. Kind of data set: filter; 45±28 nM, n=10, dot blot. The following applies: tags: 6His.
For data set [7] the target is unchanged. In words: filter; dot blot; allotype not specified for this assay. The following applies: tags: 6His.
Data set [8] has as its target T1, c-Met Fc fusion. In words: filter; dot blot. The following applies: tags: Fc-His fusion; chain copies: 2.
The target in data set [9] is T1, c-Met Fc fusion. Kind of data set: filter; 91±40 pM, n=3, dot blot; heading cites SEQ ID NO 53 but CLN0003 is SEQ 52. The following applies: tags: Fc-His fusion; chain copies: 2.
Data set [10] has as its target T1, c-Met Fc fusion. Kind of data set: filter; dot blot; picomolar. The following applies: tags: Fc-His fusion; chain copies: 2.
For data set [11], the target named is T1, c-Met Fc fusion. Kind of data set: filter; 11±6 nM, n=6, dot blot; FIG. 2 legend gives 57 nM; heading cites SEQ ID NO 54 but CLN0004 is SEQ 53. The following applies: tags: Fc-His fusion; chain copies: 2.
Data set [12] concerns the target T1, c-Met Fc fusion. In words: filter; nearly similar affinity as full length. The following applies: tags: Fc-His fusion; chain copies: 2.
In data set [13] the target is T2, CD16α (FcγRIIIa) V158 allotype, …. In words: filter; 38±26 nM, n=4, dot blot; broad unspecific cell binding in FACS. The following applies: tags: 6His.

T1 sequence (P08581 25-932, one chain of several): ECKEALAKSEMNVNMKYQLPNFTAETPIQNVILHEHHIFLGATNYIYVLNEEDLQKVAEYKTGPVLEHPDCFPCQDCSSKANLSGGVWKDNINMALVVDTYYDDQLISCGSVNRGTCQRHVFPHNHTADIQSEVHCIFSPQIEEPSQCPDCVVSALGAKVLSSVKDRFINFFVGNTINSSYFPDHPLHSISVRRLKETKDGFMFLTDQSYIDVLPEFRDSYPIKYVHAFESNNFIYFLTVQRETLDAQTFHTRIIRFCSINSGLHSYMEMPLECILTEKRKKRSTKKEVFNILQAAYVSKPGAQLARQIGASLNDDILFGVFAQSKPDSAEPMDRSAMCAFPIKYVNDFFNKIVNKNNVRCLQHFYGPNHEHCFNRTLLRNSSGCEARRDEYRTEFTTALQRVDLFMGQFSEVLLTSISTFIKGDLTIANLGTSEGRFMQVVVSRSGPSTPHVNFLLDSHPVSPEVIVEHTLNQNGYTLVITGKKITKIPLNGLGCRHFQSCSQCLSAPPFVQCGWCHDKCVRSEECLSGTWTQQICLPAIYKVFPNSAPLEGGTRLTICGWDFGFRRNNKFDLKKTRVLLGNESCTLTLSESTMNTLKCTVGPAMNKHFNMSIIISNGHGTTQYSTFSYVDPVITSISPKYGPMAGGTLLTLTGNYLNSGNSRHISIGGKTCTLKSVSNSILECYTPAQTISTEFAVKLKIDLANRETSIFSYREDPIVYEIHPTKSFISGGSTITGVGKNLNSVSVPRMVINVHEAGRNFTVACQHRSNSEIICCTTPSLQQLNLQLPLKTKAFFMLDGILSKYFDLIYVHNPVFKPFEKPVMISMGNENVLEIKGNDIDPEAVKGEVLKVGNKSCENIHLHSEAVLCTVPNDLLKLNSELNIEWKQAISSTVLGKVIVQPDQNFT
T2 sequence (P08637 17-208, one chain of several): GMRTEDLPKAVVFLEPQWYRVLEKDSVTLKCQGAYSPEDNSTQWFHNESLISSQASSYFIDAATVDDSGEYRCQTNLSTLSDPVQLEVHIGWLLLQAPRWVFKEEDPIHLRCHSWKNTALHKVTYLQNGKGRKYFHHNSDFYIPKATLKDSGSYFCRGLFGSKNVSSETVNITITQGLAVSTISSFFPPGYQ

B1: bsA18 (ssDNA)
DNA: CCACTGCGGGGGTCTATACGTGAGGAAGAAGTGGGCAGGTCATCAGGCGAGTGCGTAATGGTACGATTTGGGAAGTGGCTTGGGGTGGGATTAGTTTTGGAGTACTC
Regarding B1, the binding result with c-Met Fc fusion [1] is on record as “binds”.

Turning to GAGTGCGTAATGGTACGATTTGGGAAGTGGCTTGGGGTGG (ssDNA) [CLN0004 without flanking sequences], the binding result with c-Met Fc fusion [2] was “no binding”.

B2: bsA11 (ssDNA)
DNA: CCACTGCGGGGGTCTATACGTGAGGAAGAAGTGGGCAGGTCGATTAGTTTTGGAGTACTCGCTCCGGAGGGAAAAGTTATCAGGCTGGATGGTAGCTCGGTCGGGGTGGGTGGGTTGGCAAGTCTGATTAGTTTTGGAGTACTCGCTCC
Regarding B2, in the data set with c-Met Fc fusion [3], the binding result is reported as “binds”.

B3: bsA19 (ssDNA)
DNA: CCACTGCGGGGGTCTATACGTGAGGAAGAAGTGGGCAGGTCAAAAAAAAAAAAAAAGGAGGGAAAAGTTATCAGGCTGGATGGTAGCTCGGTCGGGGTGGGTGGGTTGGCAAGTCT
Turning to B3, the binding result with c-Met Fc fusion [1] was “binds”.

B4: bsA21 (ssDNA)
DNA: CCACTGCGGGGGTCTATACGTGAGGAAGAAGTGGGCAGGTCAAAAAAAAAAAAAAAGGAGGGAAAAGTTATCAGGCTGGATGGTAGCTCGGTCGGGGTGGGTGGGTTGGCAAGTCTGATTAGTTTTGGAGTACTCGCTCC
On to B4, for which the binding result with c-Met Fc fusion [4] was “binds”.

B5: CLN0123 (ssDNA)
DNA: GGAGGGAAAAGTTATCAGGCAGAGGGGAGGGTCGGGTATCGGCGTGTTCGGGGGATCTGCGATTAGTTTTGGAGTACTCGCTCC
Regarding B5, the dissociation constant Kd in data set [5] was found to be 231 nM. For the same molecule, in the data set with CD16β (FcγRIIIb), the binding result is “no binding”.

B6: CLN0020 (ssDNA)
DNA: GGAGGGAAAAGTTATCAGGCCACTGCGGGGGTCTATACGTGAGGAAGAAGTGGGCAGGTCGATTAGTTTTGGAGTACTCGCTCC
Consider B6, for which the binding result with CD16β (FcγRIIIb) is given as “no binding”. Besides, in data set [6], the Kd is 45 nM.

B7: bsA16 (ssDNA)
DNA: GAGTGCGTAATGGTACGATTTGGGAAGTGGCTTGGGGTGGGATTAGTTTTGGAGTACTCGCTCCGGAGGGAAAAGTTATCAGGCAGAGGGGAGGGTCGGGTATCGGCGTGTTCGGGGGATCTGCGATTAGTTTTGGAGTACTCGCTCC
Take B7: in data set [7], binding was characterised by a dissociation constant (Kd) of 178 nM.

B8: bsA12 (ssDNA)
DNA: CCACTGCGGGGGTCTATACGTGAGGAAGAAGTGGGCAGGTCGATTAGTTTTGGAGTACTCGCTCCGGAGGGAAAAGTTATCAGGCGAGTGCGTAATGGTACGATTTGGGAAGTGGCTTGGGGTGGGATTAGTTTTGGAGTACTC
Molecule B8 returned a dissociation constant (Kd) in the data set with c-Met Fc fusion [8] of 18 nM.

B9: bsA3 (ssDNA)
DNA: CCACTGCGGGGGTCTATACGTGAGGAAGAAGTGGGCAGGTCAAAAAAAAAAAAAAAGAGTGCGTAATGGTACGATTTGGGAAGTGGCTTGGGGTGGG
As for B9, in the data set with c-Met Fc fusion [1], the binding result is on record as “binds”.

B10: CLN0003 (ssDNA)
DNA: GGAGGGAAAAGTTATCAGGCTGGATGGTAGCTCGGTCGGGGTGGGTGGGTTGGCAAGTCTGATTAGTTTTGGAGTACTCGCTCC
In the case of B10, the affinity with c-Met Fc fusion [9], expressed as Kd, was 0.091 nM.

B11: bsA20 (ssDNA)
DNA: CCACTGCGGGGGTCTATACGTGAGGAAGAAGTGGGCAGGTCGGAGGGAAAAGTTATCAGGCTGGATGGTAGCTCGGTCGGGGTGGGTGGGTTGGCAAGTCT
In the case of B11, the Kd with c-Met Fc fusion [8] was found to be 5 nM.

B12: bsA9 (ssDNA)
DNA: GGAGGGAAAAGTTATCAGGCCACTGCGGGGGTCTATACGTGAGGAAGAAGTGGGCAGGTCGATTAGTTTTGGAGTACTCGCTCCGGAGGGAAAAGTTATCAGGCTGGATGGTAGCTCGGTCGGGGTGGGTGGGTTGGCAAGTCTGATTAGTTTTGGAGTACTCGCTCC
B12: the binding result with c-Met Fc fusion [4] is “binds”.

B13: bsA13 (ssDNA)
DNA: GAGTGCGTAATGGTACGATTTGGGAAGTGGCTTGGGGTGGGATTAGTTTTGGAGTACTCGCTCCGGAGGGAAAAGTTATCAGGCCACTGCGGGGGTCTATACGTGAGGAAGAAGTGG
B13 had a Kd with c-Met Fc fusion [8] of 18 nM.

B14: bsA17 (ssDNA)
DNA: CCACTGCGGGGGTCTATACGTGAGGAAGAAGTGGGCAGGTCGGAGGGAAAAGTTATCAGGCTGGATGGTAGCTCGGTCGGGGTGGGTGGGTTGGCAAGTCTGATTAGTTTTGGAGTACTCGCTCC
With B14, the dissociation constant Kd with c-Met Fc fusion [10] was 0.352 nM; in data set [7], 19 nM.

B15: bsA22 (ssDNA)
DNA: CCACTGCGGGGGTCTATACGTGAGGAAGAAGTGGAAAAAAAAAAAAAAAGGAGGGAAAAGTTATCAGGCTGGATGGTAGCTCGGTCGGGGTGGGTGGGTTGGCAAGTCTGATTAGTTTTGGAGTACTCGCTCC
B15: the binding result in the data set with c-Met Fc fusion [3] is given as “binds”.

Turning to CCACTGCGGGGGTCTATACGTGAGGAAGAAGTGG (ssDNA) [-19CLN0020-31 (34mer, MS3)], binding in data set [7] was put at a Kd of 47 nM.

B16: CLN0004 (ssDNA)
DNA: GGAGGGAAAAGTTATCAGGCGAGTGCGTAATGGTACGATTTGGGAAGTGGCTTGGGGTGGGATTAGTTTTGGAGTACTCGCTCC
Turning to B16, binding with c-Met Fc fusion [11] was put at a Kd of 11 nM.

B17: bsA15 (ssDNA)
DNA: GGAGGGAAAAGTTATCAGGCAGAGGGGAGGGTCGGGTATCGGCGTGTTCGGGGGATCTGCGATTAGTTTTGGAGTACTCGCTCCGGAGGGAAAAGTTATCAGGCTGGATGGTAGCTCGGTCGGGGTGGGTGGGTTGGCAAGTCTGATTAGTTTTGGAGTACTCGCTCC
For B17, in data set [7], the Kd is 174 nM.

B18: bsA31 (ssDNA)
DNA: CCACTGCGGGGGTCTATACGTGAGGAAGAAGTGGGCAGGTCAAAAAAAAAAAAAAAGAGTGCGTAATGGTACGATTTGGGAAGTGGCTTGGGGTGGGATTAGTTTTGGAGTACTCGCTCC
Regarding B18, the values for the dissociation constant Kd (in the data set with c-Met Fc fusion [8]; in data set [7]) were 92 nM and 24 nM, respectively.

For GAGTGCGTAATGGTACGATTTGGGAAGTGGCTTGGGGTGGG (ssDNA) [-20CLN0004-23 (41mer, MS2, with G61)], the binding result with c-Met Fc fusion [12] is recorded as “binds”.

B19: bsA10 (ssDNA)
DNA: GGAGGGAAAAGTTATCAGGCTGGATGGTAGCTCGGTCGGGGTGGGTGGGTTGGCAAGTCTGATTAGTTTTGGAGTACTCGCTCCGGAGGGAAAAGTTATCAGGCCACTGCGGGGGTCTATACGTGAGGAAGAAGTGGGCAGGTCGATTAGTTTTGGAGTACTCGCTCC
Consider B19, for which the binding result with c-Met Fc fusion [4] is on record as “binds”.

B20: CLN0018 (ssDNA)
DNA: GGAGGGAAAAGTTATCAGGCATCACGTGGTGGGCAAATAACCGGTTGGGGTGGGTCGAGGGATTAGTTTTGGAGTACTCGCTCC
As for B20, the binding result with CD16β (FcγRIIIb) was “no binding”. The same molecule yielded a Kd in data set [13] of 38 nM.

Values taken from patent US20140039042, “BISPECIFIC APTAMERS MEDIATING TUMOUR CELL LYSIS” (MERCK PATENT GMBH, published 2014).
